Laboratory results: paper PMC11353897, “Biochemical and structural elucidation of the L-carnitine degradation pathway of the human pathogen Acinetobacter baumannii” (Frontiers in Microbiology, 2024)

Key:
[1] = target: malic semialdehyde dehydrogenase (MSA-DH) from A. baumannii, N-terminal His-thioredoxin fusion (Acinetobacter baumannii ATCC 19606); experiment: crystal structure; X-ray, 2.6 A, space group P212121, 12 chains (three tetramers) in the asymmetric unit; protein at 40 mg/mL supplemented with 7 mM D-malate
[2] = target: malic semialdehyde dehydrogenase (MSA-DH) from A. baumannii, N-terminal His-thioredoxin fusion (Acinetobacter baumannii ATCC 19606); experiment: mass photometry; Refeyn TwoMP, 25 nM protein in PBS, 60 s movies, calibrated against NativeMark standard
[3] = target: malic semialdehyde dehydrogenase (MSA-DH) from A. baumannii, N-terminal His-thioredoxin fusion (Acinetobacter baumannii ATCC 19606); experiment: SEC; analytical size exclusion chromatography, Superdex 200 increase 5/150 GL, 20 mM HEPES-NaOH pH 7.5, 150 mM NaCl, 0.45 mL/min, 50 uL of 3 mg/mL protein injected, calibrated with protein standards
[4] = target: T1, malic semialdehyde dehydrogenase (MSA-DH) (Acinetobacter baumannii, UniProt D0C9N7); experiment: MSA depletion (MBTH) and NADH formation assays with […] NAD+; format: biochemical
T1 construct: gene HMPREF0010_01350; N-terminal His-thioredoxin fusion, tetramer
T1 sequence (D0C9N7 1-483): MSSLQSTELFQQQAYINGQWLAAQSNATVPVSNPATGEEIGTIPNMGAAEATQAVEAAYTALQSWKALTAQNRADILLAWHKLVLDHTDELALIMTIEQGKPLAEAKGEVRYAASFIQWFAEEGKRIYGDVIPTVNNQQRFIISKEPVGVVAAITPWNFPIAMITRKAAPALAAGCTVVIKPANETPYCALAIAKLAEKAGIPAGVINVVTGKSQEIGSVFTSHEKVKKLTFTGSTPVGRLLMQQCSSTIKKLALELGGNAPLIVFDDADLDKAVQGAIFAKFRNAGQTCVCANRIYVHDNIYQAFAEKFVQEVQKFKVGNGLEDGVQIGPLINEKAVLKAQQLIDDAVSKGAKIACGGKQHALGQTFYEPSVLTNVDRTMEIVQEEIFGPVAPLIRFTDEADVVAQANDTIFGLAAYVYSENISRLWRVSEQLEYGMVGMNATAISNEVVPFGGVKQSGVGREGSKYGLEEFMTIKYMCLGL

[5] = target: T2, carnitine monooxygenase oxygenase component CntA (Acinetobacter baumannii, UniProt D0C9N6); experiment: MBTH aldehyde formation assay and L-carnitine depletion assay (specific activity); format: biochemical
T2 construct: CntA after on-column cleavage of GST tag; with CntB (reductase)

[6] = target: T2, carnitine monooxygenase oxygenase component CntA; experiment: MBTH aldehyde formation assay (specific activity); format: biochemical
[7] = target: D-malate dehydrogenase (MDH) from A. baumannii, N-terminal His-tag fusion (Acinetobacter baumannii ATCC 19606); experiment: mass photometry; Refeyn TwoMP, 25 nM protein in PBS, 60 s movies, calibrated against NativeMark standard
[8] = target: T3, D-malate dehydrogenase (MDH) (Acinetobacter baumannii, UniProt A0ABX6CCN1); experiment: spectroscopic NADH formation assay ([…] nm) with D-malate, varied inhibitor concentrations; format: biochemical
T3 construct: gene dmlA; N-terminal His-tag fusion, tetramer
T3 sequence (A0ABX6CCN1 1-370): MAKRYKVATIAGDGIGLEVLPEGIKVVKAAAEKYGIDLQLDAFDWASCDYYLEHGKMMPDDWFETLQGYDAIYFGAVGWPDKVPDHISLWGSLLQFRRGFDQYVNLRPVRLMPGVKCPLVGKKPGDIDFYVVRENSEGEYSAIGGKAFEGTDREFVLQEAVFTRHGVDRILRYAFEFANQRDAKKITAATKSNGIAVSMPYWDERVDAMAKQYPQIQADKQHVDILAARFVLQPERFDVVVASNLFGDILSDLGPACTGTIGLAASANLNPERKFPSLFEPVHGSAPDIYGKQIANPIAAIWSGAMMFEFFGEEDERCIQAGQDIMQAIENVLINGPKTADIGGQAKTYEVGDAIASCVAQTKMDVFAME

purified protein [9] = substrate: O=C[C@H](O)CC(=O)O; experiment: purified protein; format: biochemical, Acinetobacter baumannii; details: NAD+ or NADP+ proposed from model: Arg166, Arg284, Ser447 bind the carboxylate; catalytic Cys290 (covalent hemithioacetal intermediate) and Glu256
purified protein [10] = substrate: O=C(O)C[C@@H](O)C(=O)O; experiment: purified protein; format: biochemical, Acinetobacter baumannii; details: NAD+; Mg2+ or Mn2+

Question: For “malic semialdehyde dehydrogenase (MSA-DH) from A. baumannii, N-terminal His-thioredoxin fusion (enzyme)”, which stoichiometry N [1] is on record?
Answer: 4

Question: And the stoichiometry N [2]?
Answer: 4

Question: What about the stoichiometry N [3] of the same molecule?
Answer: 4

Question: With `NC(=O)c1ccc[n+]([C@@H]2O[C@H](COP(=O)([O-])OP(=O)(O)OC[C@H]3O[C@@H](n4cnc5c(N)ncnc54)[C@H](O)[C@@H]3O)[C@@H](O)[C@H]2O)c1` [NAD^+] as the molecule, how does the “MSA depletion (MBTH) and NADH formation assays with 2 mM NAD+” value [4] read?
Answer: MSA-DH can use NAD^+ or NADP^+ as a cofactor for the oxidation of the MSA substrate

Question: With `C[N+](C)(C)C[C@H](O)CC(=O)[O-]` [L-carnitine] as the molecule, how does the “MBTH aldehyde formation assay and L-carnitine depletion assay (specific activity)” value [5] read?
Answer: 2.8 ± 0.2 µmol/min/mg

Question: Which “MBTH aldehyde formation assay (specific activity)” value [6] does the source give for `C[N+](C)(C)CCCC(=O)[O-]` [γ-butyrobetaine] here?
Answer: 2.1 ± 0.2 µmol/min/mg

Question: How did the stoichiometry N [7] turn out when “D-malate dehydrogenase (MDH) from A. baumannii, N-terminal His-tag fusion (enzyme)” was run?
Answer: 4

Question: Which Ki [8] does the source give for `O=C(O)C(O)C(O)C(=O)O` (stereo not drawn) [meso-tartrate] here?
Answer: 320 ± 80 µM

B1: malic semialdehyde dehydrogenase (MSA-DH) (Acinetobacter baumannii ATCC 19606 = CIP 70.34 = JCM 6841) (protein)
chain: T1 sequence (D0C9N7 1-483)
notes: N-terminal His-thioredoxin fusion, tetramer
Question: Which Km (purified protein [9]) does the source give for B1 here?
Answer: 2600 ± 140 µM

B2: D-malate dehydrogenase (MDH) (Acinetobacter baumannii ATCC 19606 = CIP 70.34 = JCM 6841) (protein)
chain: T3 sequence (A0ABX6CCN1 1-370)
notes: N-terminal His-tag fusion, tetramer
Question: For B2, which Km (purified protein [10]) is on record?
Answer: 2100 ± 200 µM
